Measurements published in patent US20220204580A1 (AstraZeneca / MedImmune, published 2022).
Numbered stars: 1 amine (or outer) side, 2 acyl side, 3 side chain; on linkers, the order of the positions; unused ones are H or OH. Bridge positions count the residues as written; N and C are the ends. Square brackets hold non-standard residues; d marks the D form. Side chains are listed from the residue outwards. Ends that are not written are not given here. * marks the point of attachment. C18 diacid = O=C(O)CCCCCCCCCCCCCCCCC(=O)*; γGlu = O=C(O)[C@H](CCC(=O)[*:2])N[*:1]; Dab = NCC[C@H](N)C(=O)O; Aib = CC(C)(N)C(=O)O

T1: rat calcitonin receptor (rat, UniProt P32214 25-516)
T1 sequence (looked up): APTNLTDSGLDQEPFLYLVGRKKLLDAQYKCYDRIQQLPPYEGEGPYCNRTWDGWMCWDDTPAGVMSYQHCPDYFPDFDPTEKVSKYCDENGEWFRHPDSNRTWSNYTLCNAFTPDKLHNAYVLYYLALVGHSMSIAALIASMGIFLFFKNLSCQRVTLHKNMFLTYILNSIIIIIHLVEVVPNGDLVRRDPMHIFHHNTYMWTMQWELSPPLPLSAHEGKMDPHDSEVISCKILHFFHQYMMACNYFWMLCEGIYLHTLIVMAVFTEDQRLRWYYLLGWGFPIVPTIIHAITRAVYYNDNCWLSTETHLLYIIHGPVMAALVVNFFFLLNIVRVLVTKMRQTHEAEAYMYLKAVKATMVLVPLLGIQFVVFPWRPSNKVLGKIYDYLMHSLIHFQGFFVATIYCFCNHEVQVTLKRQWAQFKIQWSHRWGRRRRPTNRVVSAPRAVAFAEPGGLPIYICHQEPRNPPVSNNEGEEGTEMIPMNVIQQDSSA

T2: rat amylin receptor (calcitonin receptor co-expressed with receptor activity modifying protein, RAMP3) (rat, UniProt P32214 25-516; Q9JJ73 23-147)
T2 sequence (looked up) 1: T1 sequence (looked up)
T2 sequence (looked up) 2: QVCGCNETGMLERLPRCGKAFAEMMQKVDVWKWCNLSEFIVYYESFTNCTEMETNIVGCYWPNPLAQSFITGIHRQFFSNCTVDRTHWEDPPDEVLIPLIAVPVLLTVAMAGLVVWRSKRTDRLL

T3: human calcitonin receptor (human, UniProt P30988 25-474)
T3 sequence (looked up): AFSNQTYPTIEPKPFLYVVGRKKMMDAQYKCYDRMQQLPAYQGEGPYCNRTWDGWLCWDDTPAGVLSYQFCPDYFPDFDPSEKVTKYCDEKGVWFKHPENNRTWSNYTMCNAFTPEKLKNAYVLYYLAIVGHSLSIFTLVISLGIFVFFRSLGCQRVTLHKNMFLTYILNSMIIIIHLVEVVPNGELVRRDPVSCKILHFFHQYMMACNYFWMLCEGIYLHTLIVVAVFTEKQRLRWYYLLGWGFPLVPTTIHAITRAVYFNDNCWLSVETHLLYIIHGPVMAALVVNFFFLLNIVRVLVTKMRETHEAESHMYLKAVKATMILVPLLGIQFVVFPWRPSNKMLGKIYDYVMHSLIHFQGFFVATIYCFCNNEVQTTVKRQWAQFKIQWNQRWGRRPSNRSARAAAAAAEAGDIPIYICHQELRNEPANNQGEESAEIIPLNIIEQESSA

T4: human amylin receptor (calcitonin receptor co-expressed with receptor activity modifying protein, RAMP3) (human, UniProt P30988 25-474; O60896 24-148)
T4 sequence (looked up) 1: T3 sequence (looked up)
T4 sequence (looked up) 2: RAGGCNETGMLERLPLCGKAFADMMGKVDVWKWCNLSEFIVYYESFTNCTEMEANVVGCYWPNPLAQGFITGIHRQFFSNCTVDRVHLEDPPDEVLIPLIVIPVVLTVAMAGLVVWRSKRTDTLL

B1: Peptide 38 (SEQ ID NO: 38) (peptide)
peptide: K([γGlu-C18 diacid])KCNTATCATQRLAEFLVHSS[Aib]NFGPILPPTNVGSNTY-NH2
modifications: disulfide 3-8; N-terminus assumed
SMILES: CC[C@H](C)[C@H](NC(=O)[C@@H]1CCCN1C(=O)CNC(=O)[C@H](Cc1ccccc1)NC(=O)[C@H](CC(N)=O)NC(=O)C(C)(C)NC(=O)[C@H](CO)NC(=O)[C@H](CO)NC(=O)[C@H](Cc1c[nH]cn1)NC(=O)[C@@H](NC(=O)[C@H](CC(C)C)NC(=O)[C@H](Cc1ccccc1)NC(=O)[C@H](CCC(=O)O)NC(=O)[C@H](C)NC(=O)[C@H](CC(C)C)NC(=O)[C@H](CCCNC(=N)N)NC(=O)[C@H](CCC(N)=O)NC(=O)[C@@H](NC(=O)[C@H](C)NC(=O)[C@@H]1CSSC[C@H](NC(=O)[C@H](CCCCN)NC(=O)[C@@H](N)CCCCNC(=O)CC[C@H](NC(=O)CCCCCCCCCCCCCCCCC(=O)O)C(=O)O)C(=O)N[C@@H](CC(N)=O)C(=O)N[C@@H]([C@@H](C)O)C(=O)N[C@@H](C)C(=O)N[C@@H]([C@@H](C)O)C(=O)N1)[C@@H](C)O)C(C)C)C(=O)N[C@@H](CC(C)C)C(=O)N1CCC[C@H]1C(=O)N1CCC[C@H]1C(=O)N[C@H](C(=O)N[C@@H](CC(N)=O)C(=O)N[C@H](C(=O)NCC(=O)N[C@@H](CO)C(=O)N[C@@H](CC(N)=O)C(=O)N[C@H](C(=O)N[C@@H](Cc1ccc(O)cc1)C(N)=O)[C@@H](C)O)C(C)C)[C@@H](C)O
B2: Peptide 35 (SEQ ID NO: 35) (peptide)
peptide: K([γGlu-C18 diacid])KCNTATCATQRLANFLVHSS[Aib]NFGPILPPTNVGSNTY-NH2
modifications: disulfide 3-8; N-terminus assumed
SMILES: CC[C@H](C)[C@H](NC(=O)[C@@H]1CCCN1C(=O)CNC(=O)[C@H](Cc1ccccc1)NC(=O)[C@H](CC(N)=O)NC(=O)C(C)(C)NC(=O)[C@H](CO)NC(=O)[C@H](CO)NC(=O)[C@H](Cc1c[nH]cn1)NC(=O)[C@@H](NC(=O)[C@H](CC(C)C)NC(=O)[C@H](Cc1ccccc1)NC(=O)[C@H](CC(N)=O)NC(=O)[C@H](C)NC(=O)[C@H](CC(C)C)NC(=O)[C@H](CCCNC(=N)N)NC(=O)[C@H](CCC(N)=O)NC(=O)[C@@H](NC(=O)[C@H](C)NC(=O)[C@@H]1CSSC[C@H](NC(=O)[C@H](CCCCN)NC(=O)[C@@H](N)CCCCNC(=O)CC[C@H](NC(=O)CCCCCCCCCCCCCCCCC(=O)O)C(=O)O)C(=O)N[C@@H](CC(N)=O)C(=O)N[C@@H]([C@@H](C)O)C(=O)N[C@@H](C)C(=O)N[C@@H]([C@@H](C)O)C(=O)N1)[C@@H](C)O)C(C)C)C(=O)N[C@@H](CC(C)C)C(=O)N1CCC[C@H]1C(=O)N1CCC[C@H]1C(=O)N[C@H](C(=O)N[C@@H](CC(N)=O)C(=O)N[C@H](C(=O)NCC(=O)N[C@@H](CO)C(=O)N[C@@H](CC(N)=O)C(=O)N[C@H](C(=O)N[C@@H](Cc1ccc(O)cc1)C(N)=O)[C@@H](C)O)C(C)C)[C@@H](C)O
B3: Peptide 33 (SEQ ID NO: 33) (peptide)
peptide: K([γGlu-C18 diacid])KCNTATCATQRLA[Dab]FLVHSSNNFGPILPPTNVGSNTY-NH2
modifications: disulfide 3-8; N-terminus assumed
SMILES: CC[C@H](C)[C@H](NC(=O)[C@@H]1CCCN1C(=O)CNC(=O)[C@H](Cc1ccccc1)NC(=O)[C@H](CC(N)=O)NC(=O)[C@H](CC(N)=O)NC(=O)[C@H](CO)NC(=O)[C@H](CO)NC(=O)[C@H](Cc1c[nH]cn1)NC(=O)[C@@H](NC(=O)[C@H](CC(C)C)NC(=O)[C@H](Cc1ccccc1)NC(=O)[C@H](CCN)NC(=O)[C@H](C)NC(=O)[C@H](CC(C)C)NC(=O)[C@H](CCCNC(=N)N)NC(=O)[C@H](CCC(N)=O)NC(=O)[C@@H](NC(=O)[C@H](C)NC(=O)[C@@H]1CSSC[C@H](NC(=O)[C@H](CCCCN)NC(=O)[C@@H](N)CCCCNC(=O)CC[C@H](NC(=O)CCCCCCCCCCCCCCCCC(=O)O)C(=O)O)C(=O)N[C@@H](CC(N)=O)C(=O)N[C@@H]([C@@H](C)O)C(=O)N[C@@H](C)C(=O)N[C@@H]([C@@H](C)O)C(=O)N1)[C@@H](C)O)C(C)C)C(=O)N[C@@H](CC(C)C)C(=O)N1CCC[C@H]1C(=O)N1CCC[C@H]1C(=O)N[C@H](C(=O)N[C@@H](CC(N)=O)C(=O)N[C@H](C(=O)NCC(=O)N[C@@H](CO)C(=O)N[C@@H](CC(N)=O)C(=O)N[C@H](C(=O)N[C@@H](Cc1ccc(O)cc1)C(N)=O)[C@@H](C)O)C(C)C)[C@@H](C)O
B4: Peptide 34 (SEQ ID NO: 34) (peptide)
peptide: K([γGlu-C18 diacid])KCNTATCATQRLA[Dab]FLVHSSNNFGPILPPTEVGSNTY-NH2
modifications: disulfide 3-8; N-terminus assumed
SMILES: CC[C@H](C)[C@H](NC(=O)[C@@H]1CCCN1C(=O)CNC(=O)[C@H](Cc1ccccc1)NC(=O)[C@H](CC(N)=O)NC(=O)[C@H](CC(N)=O)NC(=O)[C@H](CO)NC(=O)[C@H](CO)NC(=O)[C@H](Cc1c[nH]cn1)NC(=O)[C@@H](NC(=O)[C@H](CC(C)C)NC(=O)[C@H](Cc1ccccc1)NC(=O)[C@H](CCN)NC(=O)[C@H](C)NC(=O)[C@H](CC(C)C)NC(=O)[C@H](CCCNC(=N)N)NC(=O)[C@H](CCC(N)=O)NC(=O)[C@@H](NC(=O)[C@H](C)NC(=O)[C@@H]1CSSC[C@H](NC(=O)[C@H](CCCCN)NC(=O)[C@@H](N)CCCCNC(=O)CC[C@H](NC(=O)CCCCCCCCCCCCCCCCC(=O)O)C(=O)O)C(=O)N[C@@H](CC(N)=O)C(=O)N[C@@H]([C@@H](C)O)C(=O)N[C@@H](C)C(=O)N[C@@H]([C@@H](C)O)C(=O)N1)[C@@H](C)O)C(C)C)C(=O)N[C@@H](CC(C)C)C(=O)N1CCC[C@H]1C(=O)N1CCC[C@H]1C(=O)N[C@H](C(=O)N[C@@H](CCC(=O)O)C(=O)N[C@H](C(=O)NCC(=O)N[C@@H](CO)C(=O)N[C@@H](CC(N)=O)C(=O)N[C@H](C(=O)N[C@@H](Cc1ccc(O)cc1)C(N)=O)[C@@H](C)O)C(C)C)[C@@H](C)O

What follows are binders tested against T1, rat calcitonin receptor (assay: cell-based or functional assay).
B1 was tested, and the “EC50 (cAMP production)” value was 0.0203 nM. For B2, the “EC50 (cAMP production)” value was 0.514 nM.

Each binder was assayed against T2, rat amylin receptor (calcitonin …) (assay: cell-based or functional assay).
B1 was tested, and the “EC50 (cAMP production)” value was 0.0051 nM. For B2, the “EC50 (cAMP production)” value was 0.0059 nM.

What follows are binders tested against T3, human calcitonin receptor (assay: cell-based or functional assay).
In the case of B3, the “EC50 (cAMP production)” value is reported as 15.8 nM. With B1 the “EC50 (cAMP production)” value was 1.05 nM. For B2, the “EC50 (cAMP production)” value was 14.2 nM. With B4 the “EC50 (cAMP production)” value was 17.7 nM.

These binders were tested against T4, human amylin receptor (calcitonin …) (assay: cell-based or functional assay).
For B3, the “EC50 (cAMP production)” value was 0.598 nM and the “Ratio (EC50 hCTR / EC50 hAMYR3)” value was 26. For B1, the “EC50 (cAMP production)” value was 0.19 nM and the “Ratio (EC50 hCTR / EC50 hAMYR3)” value was 6. In the case of B2, the “EC50 (cAMP production)” value is reported as 0.259 nM and the “Ratio (EC50 hCTR / EC50 hAMYR3)” value is reported as 55. For B4, the “EC50 (cAMP production)” value was 0.877 nM and the “Ratio (EC50 hCTR / EC50 hAMYR3)” value was 20.
